In patent US20230106131A1:

Tests used:
[1] = molecular target: GST-MDM2 (human MDM2 residues 17-125) (human) (UniProt Q00987); test: direct binding of the FITC-labeled peptide to MDM2
[2] = molecular target: GST-MDM2 (human MDM2 residues 17-125) (human) (UniProt Q00987); test: ratio of KD values of FITC-labeled peptides

Chain of GST-MDM2 (human MDM2 residues 17-125) (human) (Q00987 17-125): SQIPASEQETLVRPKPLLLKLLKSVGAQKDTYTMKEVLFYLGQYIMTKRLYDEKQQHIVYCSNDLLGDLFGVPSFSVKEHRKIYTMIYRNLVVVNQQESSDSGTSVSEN

**Q.** How did the Kd [1] turn out when “peptide 9, Ac-LTFhCHYWhCQLTS-miniPEG-K(FITC)-NH2, stapled with BBA-CPP9” was run?
**A.** 114 nM

**Q.** What about the fold decrease of affinity against peptide 8 [2] of the same substance?
**A.** 8 fold
